Results from the RNAGym collection of RNA variant scans (doi:10.1093/nar/gkz1192).

B1: CPEB3 Ribozyme (parent)
chain: UAACAGGGGGCCACAGCAGAAGCGUUCACGUCGCAGCCCCUGUCAGAUUCUGGUGAAUCUGCGAAUUCUGCUGUAUAUCUC

Variants of: B1
Test: self-cleavage, relative activity (ratio to wild type); higher = more cleavage; in vitro, sequencing
In short: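 After error-prone PCR and barcoding, CPEB3 ribozyme mutant libraries were transcribed with T7 RNA polymerase at 37°C for 5 hours, then given 15 min with DNase I before an EDTA stop, and they cleaved during both steps. Reverse transcription with template switching preceded Illumina sequencing. Relative activity divides a variant's cleaved/total read fraction by the unmutated ribozyme's. At least 5 reads were required per variant, and three batches were averaged.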

Variant	self-cleavage
U26G C44A	0.25
A28C U41A	0.2
A28C U41C	0.28
A28G A35G	1.18
A28G A35C	0.53
A28G A35U	0.27
U26C G61C	0.25
U26C G61U	0.35
U26G U66G	0.2
U26G U66C	0.16
A28C G52U	0.64
C27U C29A	0.15
C27U U48C	0.18
C27U A57G	0.17
C27A A65G	0.25
U26G U69C	0.37
U26G U69A	0.21
U26C G52C	0.27
U26C G52A	0.76
A28C U66C	0.28
C27U U72A	0.18
C27U U72C	0.24
C27U U43C	0.21
C27U U43A	0.29

Variant	self-cleavage
A28C G61A	0.48
A28C G61C	0.19
A28C G61U	0.2
C27G U80A	0.22
A28C C32A	0.24
C27U U74A	0.5
C27U U74C	0.36
U26G A35G	0.8
U26G A35U	0.13
U26C U78A	0.51
U26C U78C	0.42
U26G A47G	0.39
A28C A56G	0.3
A28C A56U	0.23
C27A G46U	0.18
U26G U49A	0.28
U26G U49G	0.05
U26G C59A	0.16
U26C U76G	0.55
U26C U76A	0.53
U26C U76C	0.52
C27A A45G	0.22
U26C C81U	0.5
U26C C81A	0.63

Variant	self-cleavage
U26G U58C	0.36
U26G U54A	0.19
C27A A35G	0.52
A28C G70U	0.11
A28C G70A	0.27
A28C U69A	0.17
A28C U69G	0.2
A28C U69C	0.19
C27U G33U	0.34
C27U A47U	0.44
C27U A47G	0.28
C27A U78C	0.19
U26C G42C	0.15
U26C G42A	0.31
U26C G42U	0.25
A28C C79U	0.63
A28C A77U	0.22
A28C A77G	0.51
C27U A65U	0.14
C27U A65G	0.24
C27U A65C	0.1
C27A A77U	0.14
U26G U80A	0.35
U26G U80C	0.51

Variant	self-cleavage
A28G A56G	0.43
A28G A56U	0.34
A28G A56C	0.31
C27A A64U	0.2
C27A A64G	0.33
C27U C37U	0.2
U26G U78C	0.3
U26G U78A	0.51
C27A C39A	0.2
C27U G63A	0.22
A28C U78A	0.64
A28C U78C	0.46
U26C U74G	0.78
U26C U74A	0.73
U26C U74C	0.79
C27A U80A	0.17
C27A U80C	0.66
A28C U60A	0.4
A28C U60C	0.29
U26C U67C	0.22
U26C U67A	0.24
U26C U67G	0.21
U26C U54G	0.27
U26C U54C	0.44

Variant	self-cleavage
U26C U54A	0.5
U26G A75G	0.16
U26G G53A	0.24
A28C U58G	0.2
A28C U58C	0.27
C27G U49A	0.28
C27U U51A	0.17
U26G A64G	0.25
C27U U67C	0.16
U26G U76A	0.32
U26G U76C	0.45
C27G A47U	0.05
U26G C68U	0.35
C27U U41G	0.11
C27U U41A	0.2
C27U U41C	0.2
C27G U76C	0.22
C27U U66C	0.15
A28C G55U	0.21
U26G C34G	0.07
A28C A45G	0.39
A28C A35G	0.98
A28C A35C	0.4
A28C A35U	0.27

Variant	self-cleavage
A28G	0.67
A28C	0.56
C27A C37U	0.21
U26C C71U	0.24
U26C C71A	0.1
U26C U58A	0.15
U26C U58G	0.28
U26C U58C	0.29
A28C G63U	0.41
C27A A56U	0.09
U26G C27U	0.63
A28G A45C	0.33
A28G A45U	0.31
A28G A45G	0.4
C27U A56G	0.52
C27U A56U	0.21
A28C U48C	0.46
A28C U48A	0.37
C27U A28G	0.37
C27U U31C	0.46
U26C U66G	0.21
U26C U66A	0.23
U26C U66C	0.26
U26C U48C	0.33

Variant	self-cleavage
U26C U48G	0.47
U26C U48A	0.23
U26G U43A	0.41
U26G U43C	1.02
C27G U74C	0.41
C27A U67A	0.18
C27A U67C	0.14
A28C U74C	0.7
A28C U74A	0.9
U26C C79U	0.55
U26C C79G	0.59
U26C C79A	0.61
A28C U72A	0.38
A28C U72G	0.4
A28C U72C	0.61
C27U U80C	0.58
C27U U80A	0.29
U26G A65G	0.35
U26G A65U	0.15
U26G U74A	0.41
U26G U74C	0.39
A28G A64G	0.46
C27U G30A	0.26
C27A U72C	0.19

Variant	self-cleavage
U26C G36A	0.13
U26C G36C	0.15
U26C G36U	0.25
U26G G73A	0.89
A28G A57U	0.24
A28G A57G	0.51
A28G A57C	0.16
C27A C81U	0.11
C27A C32U	0.3
C27A C50U	0.17
A28G A47G	0.52
A28G A47C	0.23
A28G A47U	0.25
U26C G30A	0.27
U26C G30U	0.16
U26G U41A	0.28
U26G U41C	0.4
A28C C81U	0.67
A28C C71U	0.41
A28C C71G	0.08
U26G U31A	0.3
U26G U31C	0.25
A28C C62U	0.06
A28C G73U	0.55

Variant	self-cleavage
U26G U51G	0.33
U26G U51A	0.42
C27G C29U	0.29
U26C G46A	0.17
U26G	0.31
C27G A56G	0.14
C27U U58C	0.15
U26C U69A	0.26
U26C U69C	0.27
U26C U69G	0.17
C27G U72C	0.11
A28C A64G	0.52
U26C C68A	0.28
U26C C68U	0.5
A28C U54G	0.36
A28C U54C	0.53
U26C U80C	0.56
U26C U80G	0.54
U26C U80A	0.51
U26C U49A	0.3
U26C U49C	0.34
U26C U51C	0.44
U26C U51G	0.46
U26C U51A	0.43

Variant	self-cleavage
A28C U31A	0.55
A28C U31C	0.35
A28C U31G	0.38
C27G C32U	0.17
U26C G55A	0.43
U26C G55C	0.33
C27A A57G	0.08
C27A U69A	0.08
C27A U54C	0.56
C27G	0.28
C27U	0.29
C27A	0.3
U26C G63U	0.61
U26C G63C	0.41
U26C G63A	0.35
A28C U49C	0.21
A28C U49A	0.26
A28C U67A	0.49
A28C U67C	0.22
U26C G53A	0.51
A28C C38U	0.41
A28C C38G	0.19
C27G U41C	0.18
C27A C59A	0.11

Variant	self-cleavage
A28C A47C	0.18
U26G A56U	0.1
U26G A56G	0.24
C27G A35U	0.16
C27U U78A	0.16
C27U U78G	0.38
C27U U78C	0.44
C27U A77U	0.09
U26G U60C	0.11
U26G C38A	0.58
C27A U74C	0.19
U26C G70A	0.59
U26C G70C	0.12
U26C G70U	0.26
C27A U41A	0.07
C27A U41C	0.24
C27U A64G	0.24
C27U A64U	0.26
C27U U49C	0.15
A28C U43C	0.4
A28C U43A	0.59
U26C U72C	0.65
U26C U72A	0.36
U26C U72G	0.41

Variant	self-cleavage
A28C A65G	0.24
A28C A65U	0.3
A28C A57G	0.45
C27A U43C	0.18
C27A U43A	0.39
C27U U60C	0.14
C27A U51A	0.38
C27A U51C	0.21
C27A A28G	0.27
C27U U54C	0.35
C27U U54A	0.34
C27A C44G	0.07
U26G U72C	0.31
U26G U72A	0.14
C27U C38U	0.32
C27A U48C	0.11
C27G U54C	0.3
U26C C62A	0.38
U26C C62U	0.16
U26C C62G	0.17
A28C U80A	0.53
U26C U43C	0.77
U26C U43G	0.7
U26C U43A	0.26

Variant	self-cleavage
U26G C79U	0.4
U26G C79A	0.19
U26G A45C	0.09
U26G A45G	0.17
U26G A45U	0.17
U26C U41C	0.45
U26C U41G	0.31
U26C U41A	0.28
U26C U31A	0.27
U26C U31G	0.32
U26C U31C	0.35
C27A U76C	0.21
C27A U76A	0.55
U26G A57G	0.27
A28C U76A	0.61
A28C U76C	0.53
A28C A75G	0.49
C27A U58G	0.25
C27G C50U	0.23
C27U A35G	0.41
C27U A35U	0.32
U26G A77G	0.34
U26C G73A	0.99
U26C G73U	1

Variant	self-cleavage
C27G A64G	0.23
C27G U69G	0.14
C27G U69C	0.24
A28C U51G	0.38
A28C U51A	0.53
A28C U51C	0.51
C27G A75G	0.3
U26C C59A	0.17
U26C U60C	0.27
U26C U60A	0.39
U26C U60G	0.3
U26C G33A	0.24
U26C G33C	0.13
U26C G33U	0.24
C27U A45C	0.19
C27U A45G	0.17
U26G C62A	0.13
U26G U48C	0.22
U26G U48A	0.37
C27U U76C	0.19
C27U U76A	0.28
C27A U60C	0.18
